Data: doi:10.1101/2021.07.08.451529v1

B1: recombinant MDH-1 (Caenorhabditis elegans) (protein)
chain: MSAPLRVLVTGAAGQIGYSIVIRIADGTVFGKEQPVELVLLDVPQCSNILEGVVFELQDCALPTLFSVVAVTDEKSAFTGIDYAFLVGAMPRREGMERKDLLAANVKIFKSQGKALAEYAKPTTKVIVVGNPANTNAFIAAKYAAGKIPAKNFSAMTRLDHNRALAQLALKTGTTIGNVKNVIIWGNHSGTQFPDVTHATVNKNGTETDAYAAVGDNAFLQGPFIATVQKRGGVIIEKRKLSSAMSAAKAACDHIHDWHFGTKAGQFVSMAVPSDGSYGIPQGLIFSFPVTIEGGEWKIVQGLSFDDFAKGKIAATTKELEEERDDALKACDDANI
B2: recombinant MDH-2 (Caenorhabditis elegans) (protein)
chain: SQAPKVALLGAAGGIGQPLGLLLKQDPLVAHLALYDVVNTPGVAADLSHIDSNAKVTAHTGPKELYAAVENADVIVIPAGVPRKPGMTRDDLFNTNAGIVRDLAAVIAKASPKALIAIITNPVNSTVPIASEVLKKAGVYDPKRVFGVTTLDVVRSQAFVSELKGHDASKTVVPVVGGHAGITIIPLLSQVKPSTKFSEEEISKLTPRIQDAGTEVVNAKAGAGSATLSMALAGARFANALVRGIKGEKNVQCAYVASDAVKGVEYFSTPVELGPNGVEKILGVGKVSAYEQKLIDASVPELNKNIAKGVAFVKGN
B3: endogenous MDH-1 (Caenorhabditis elegans) (protein)
chain: B1 chain
B4: endogenous MDH-2 (Caenorhabditis elegans) (protein)
chain: B2 chain

Key:
purified protein [1] = substrate: NC(=O)C1=CN([C@@H]2O[C@H](COP(=O)(O)OP(=O)(O)OC[C@H]3O[C@@H](n4cnc5c(N)ncnc54)[C@H](O)[C@@H]3O)[C@@H](O)[C@H]2O)C=CC1; test: purified protein; details: 150 μM oxaloacetate, 0.1 M phosphate pH 7.5, 0.1 M KCl, 24 °C
purified protein [2] = substrate: O=C(O)CC(=O)C(=O)O; test: purified protein; details: 100 μM NADH, 0.1 M phosphate pH 7.5, 0.1 M KCl, 24 °C

Protein	Km (purified protein [1]) [µM]	Km (purified protein [2]) [µM]
B1	61 ± 6	54 ± 4
B2		52 ± 4
B3		50 ± 4
B4		42 ± 2
